Where a chain is given by its changes, count along the chain named.
Key:
Test in all cases: purified protein
Conditions in all cases: 0.1 M Tris-HCl pH 8, 10 mM MgCl2, 0.22 mM NADP(H), 25 C
[1] = substrate: CC[C@](O)(C(C)=O)C(=O)O; type: biochemical, Streptomyces avermitilis
[2] = substrate: CC(=O)[C@](C)(O)C(=O)O; type: biochemical, Streptomyces avermitilis
[3] = substrate: CC(=O)[C@](C)(O)C(=O)O; type: biochemical, Streptomyces viridifaciens
[4] = substrate: CC(C)(O)C(=O)C(=O)O; type: biochemical, Streptomyces viridifaciens
[5] = substrate: CC(=O)[C@](C)(O)C(=O)O; type: biochemical, Streptomyces coelicolor
[6] = substrate: CC(C)(O)C(=O)C(=O)O; type: biochemical, Streptomyces coelicolor
[7] = substrate: CC(=O)[C@](C)(O)C(=O)O; type: biochemical, Streptomyces ambofaciens
[8] = substrate: CC(C)(O)C(=O)C(=O)O; type: biochemical, Streptomyces ambofaciens
[9] = substrate: CC(=O)[C@](C)(O)C(=O)O; type: biochemical, Streptomyces lividans
[10] = substrate: CC(C)(O)C(=O)C(=O)O; type: biochemical, Streptomyces lividans
[11] = substrate: CC(C)(O)C(=O)C(=O)O; type: biochemical, Escherichia coli
[12] = substrate: CC(C)(O)C(=O)C(=O)O; type: biochemical, Corynebacterium glutamicum
[13] = substrate: CC(=O)[C@](C)(O)C(=O)O; type: biochemical, Streptomyces pristinaespiralis
[14] = substrate: CC(C)(O)C(=O)C(=O)O; type: biochemical, Streptomyces pristinaespiralis
[15] = substrate: CC[C@](O)(C(C)=O)C(=O)O; type: biochemical, Streptomyces griseus
[16] = substrate: CC(=O)[C@](C)(O)C(=O)O; type: biochemical, Streptomyces griseus

B1: Sav (Streptomyces avermitilis MA-4680 = NBRC 14893) (protein)
chain: MAELFYDADADLSIIQGRKVAVIGYGSQGHAHALSLRDSGVDVRVGLHEGSKSKAKAEEQGLRVVTPSEAAAEADVIMILVPDPIQAQVYEESIKDNLKDGDALFFGHGLNIRFGFIKPPAGVDVCMVAPKGPGHLVRRQYEEGRGVPCIAAVEQDATGNGFALALSYAKGIGGTRAGVIKTTFTEETETDLFGEQAVLCGGTAALVKAGFETLTEAGYQPEIAYFECLHELKLIVDLMYEGGLEKMRWSISETAEWGDYVTGPRIITDATKAEMKKVLAEIQDGTFAQAWMDEYHGGLKKYNEYKTQDENHLLETTGKELRKLMSWVNDEEA
notes: pET28a, expressed in E. coli BL21 Star (DE3), Ni-NTA purified (His-tagged)
Km [1]: 2600 ± 300 µM
kcat [1]: 0.4 ± 0.04 s⁻¹
Km [2]: 800 ± 90 µM
kcat [2]: 0.24 ± 0.2 s⁻¹

B2: Svi2 (Streptomyces viridifaciens) (protein)
chain: MAELFYDADADLSIIQGRKVAVIGYGSQGHAHALSLRDSGVDVRVGLHEGSKSKAKAEEQGLRVVTPAEAAAEADVIMILVPDPIQAQVYEESVKDNLKDGDALFFGHGFNIRFGFIKPPAGVDVCMVAPKGPGHLVRRQYEEGRGVPCIAAVEQDASGNAFALALSYAKGIGGTRAGVIKTTFTEETETDLFGEQAVLCGGTSALVKAGFETLVEAGYQPEIAYFECLHELKLIVDLMYEGGLEKMRWSVSETAEWGDYVTGPRIITDATKAEMKKVLAEIQDGTFAKNWMDEYHGGLKKYDDYKEQDSEHLLETTGKQLRKLMSWVNEETM
notes: commercially synthesized gene; pET28a, expressed in E. coli BL21 Star (DE3), Ni-NTA purified (His-tagged)
Km [3]: 1800 ± 900 µM
kcat [3]: 2 ± 0.07 s⁻¹
Km [4]: 5000 ± 4800 µM
kcat [4]: 2.5 ± 0.3 s⁻¹

B3: Sco1 (Streptomyces coelicolor A3(2)) (protein)
chain: MAELFYDADADLSIIQGRKVAVIGYGSQGHAHALSLRDSGVDVRVGLHEGSKSKAKAEEQGLRVVPVAEAAAEADVIMILVPDPIQAEVYEKDIKDNLKDGDALFFGHGLNIRYGFIKPPAGVDVCMVAPKGPGHLVRRQYEEGRGVPCIAAVEQDATGNAFALALSYAKGIGGTRAGVIKTTFTEETETDLFGEQAVLCGGTAALVKAGFETLTEAGYQPEIAYFECLHELKLIVDLMYEGGLEKMRWSISETAEWGDYVTGPRIITDATKAEMKKVLAEIQDGTFAKNWMDEYHGGLKKYNEYKKQDSEHLLETTGKELRKLMSWVDEEA
notes: as for B1
Km [5]: 1600 ± 200 µM
kcat [5]: 1.1 ± 0.2 s⁻¹
Km [6]: 3000 ± 200 µM
kcat [6]: 2.2 ± 0.15 s⁻¹

B4: Sam (Streptomyces ambofaciens) (protein)
chain: B3 chain with P66S, V67P, A68S, E88Q, K92E, D93H, Y114F, T158S, K307Q, E320Q
notes: as for B1
Km [7]: 2000 ± 150 µM
kcat [7]: 0.63 ± 0.5 s⁻¹
Km [8]: 4000 ± 300 µM
kcat [8]: 0.8 ± 0.1 s⁻¹

B5: Sco2 (Streptomyces coelicolor A3(2)) (protein)
chain: B3 chain with I117V, I150L, A151V, K181R, C200A, T203V, A204T, A270V, K276R
notes: as for B1
Km [5]: 12000 ± 800 µM
kcat [5]: 0.24 ± 0.01 s⁻¹
Km [6]: 10000 ± 110 µM
kcat [6]: 0.3 ± 0.04 s⁻¹

B6: Sli1 (Streptomyces lividans TK24) (protein)
chain: B3 chain
notes: as for B1
Km [9]: 1200 ± 70 µM
kcat [9]: 0.7 ± 0.59 s⁻¹
Km [10]: 4000 ± 500 µM
kcat [10]: 2.8 ± 0.3 s⁻¹

B7: Eco (Escherichia coli K-12) (protein)
chain: ANYFNTLNLRQQLAQLGKCRFMGRDEFADGASYLQGKKVVIVGCGAQGLNQGLNMRDSGLDISYALRKEAIAEKRASWRKATENGFKVGTYEELIPQADLVINLTPDKQHSDVVRTVQPLMKDGAALGYSHGFNIVEVGEQIRKDITVVMVAPKCPGTEVREEYKRGFGVPTLIAVHPENDPKGEGMAIAKAWAAATGGHRAGVLESSFVAEVKSDLMGEQTILCGMLQAGSLLCFDKLVEEGTDPAYAEKLIQFGWETITEALKQGGITLMMDRLSNPAKLRAYALSEQLKEIMAPLFQKHMDDIISGEFSSGMMADWANDDKKLLTWREETGKTAFETAPQYEGKIGEQEYFDKGVLMIAMVKAGVELAFETMVDSGIIEESAYYESLHELPLIANTIARKRLYEMNVVISDTAEYGNYLFSYACVPLLKPFMAELQPGDLGKAIPEGAVDNGQLRDVNEAIRSHAIEQVGKKLRGYMTDMKRIAVAG
notes: as for B1
Km [11]: 260 ± 30 µM
kcat [11]: 3.1 ± 0.25 s⁻¹

B8: Cgl (Corynebacterium glutamicum ATCC 13032) (protein)
chain: MAIELLYDADADLSLIQGRKVAIVGYGSQGHAHSQNLRDSGVEVVIGLREGSKSAEKAKEAGFEVKTTAEAAAWADVIMLLAPDTSQAEIFTNDIEPNLNAGDALLFGHGLNIHFDLIKPADDIIVGMVAPKGPGHLVRRQFVDGKGVPCLIAVDQDPTGTAQALTLSYAAAIGGARAGVIPTTFEAETVTDLFGEQAVLCGGTEELVKVGFEVLTEAGYEPEMAYFEVLHELKLIVDLMFEGGISNMNYSVSDTAEFGGYLSGPRVIDADTKSRMKDILTDIQDGTFTKRLIANVENGNTELEGLRASYNNHPIEETGAKLRDLMSWVKVDARAETA
notes: as for B1
Km [12]: 2300 ± 250 µM
kcat [12]: 0.9 ± 0.08 s⁻¹

B9: Spr (Streptomyces pristinaespiralis ATCC 25486) (protein)
chain: MAELFYDDDADLSIIQNRKVAVIGYGSQGHAHALSLRDSGVDVRVGLHEGSKSKAKAEEQGLRVVTPAEAAAEADVIMILIPDPIQAQVYEESVKGNLKDGDALFFAHGFNVRFGFIKAPAGVDVALVAPKGPGHLVRRQYEEGRGVPAIAAVEQDATGNAFALALSYAKAIGGTRAGVIKTTFTEETETDLFGEQAVLCGGASALVKAGFETLTEAGYQPEIAYFECLHELKLIVDLMYEGGLEKMRWSVSETAEWGDYITGPRIITDQTKAEMKKVLAEIQDGTFAKNWMDEYHGGLKKYDEYKTQDSEHLLETTGKELRKLMSWVDNDEA
notes: as for B1
Km [13]: 9000 ± 700 µM
kcat [13]: 3.6 ± 0.3 s⁻¹
Km [14]: 8600 ± 900 µM
kcat [14]: 5.2 ± 0.6 s⁻¹

B10: Sgr (Streptomyces griseus subsp. griseus NBRC 13350) (protein)
chain: MAELFYDDDADLSIIQGRKVAVLGYGSQGHAHALSLRDSGVDVRVGLHEGSKSKAKAEEQGLRVVTPSEAAAEADVIMILVPDPIQAQVYEESVKDNLKDGDALFFGHGLNIRFGFIKPPAGVDVCMVAPKGPGHLVRRQYEEGRGVPCIVAVEQDASGKGLELALSYAKGIGGTRAGVIKTTFTEETETDLFGEQAVLCGGTAALVKAGFETLTEAGYQPEIAYFECLHELKLIVDLMYEGGLEKMRWSISETAEWGDYVTGPRIITDATKAEMKKVLAEIQDGTFAKNWMAEYHNGLPKYNEYKKADSDHLLETTGRELRKLMSWVNDEEA
notes: as for B1
Km [15]: 2500 ± 300 µM
kcat [15]: 0.44 ± 0.03 s⁻¹
Km [16]: 1200 ± 700 µM
kcat [16]: 0.42 ± 0.04 s⁻¹
